From US20140087995A1 (published 2014)
Numbered stars: 1 amine (or outer) side, 2 acyl side, 3 side chain; on linkers, the order of the positions; unused ones are H or OH. Bridge positions count the residues as written; N and C are the ends. Side chains are listed from the residue outwards. Ends that are not written are not given here. * marks the point of attachment. C20 diacid = O=C(O)CCCCCCCCCCCCCCCCCCC(=O)*; γGlu = O=C(O)[C@H](CCC(=O)[*:2])N[*:1]; AEEA = NCCOCCOCC(=O)O

T1: rat calcitonin receptor (rat, UniProt P32214 25-516)
T1 construct: whole, on cells; Membranes of transiently transfected BHK tk'ts 13 cells; also called rCTR; rat calcitonin (a) receptor
T1 sequence (looked up): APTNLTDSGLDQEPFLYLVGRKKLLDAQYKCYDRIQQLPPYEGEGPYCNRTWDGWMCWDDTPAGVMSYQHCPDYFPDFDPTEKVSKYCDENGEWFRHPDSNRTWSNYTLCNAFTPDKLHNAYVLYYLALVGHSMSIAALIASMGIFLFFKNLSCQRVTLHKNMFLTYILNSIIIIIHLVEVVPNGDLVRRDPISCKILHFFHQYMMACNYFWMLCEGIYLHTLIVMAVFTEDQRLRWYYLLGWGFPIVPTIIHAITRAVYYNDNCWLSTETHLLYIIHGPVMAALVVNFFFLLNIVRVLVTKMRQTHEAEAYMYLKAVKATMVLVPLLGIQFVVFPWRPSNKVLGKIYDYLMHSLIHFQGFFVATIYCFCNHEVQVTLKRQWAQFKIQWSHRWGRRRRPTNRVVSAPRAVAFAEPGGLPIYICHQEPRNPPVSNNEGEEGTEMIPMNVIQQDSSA

T2: human calcitonin receptor (human, UniProt P30988 25-474)
T2 construct: whole, on cells; Membranes of stably transfected cells; also called hCTR; hCT
T2 sequence (looked up): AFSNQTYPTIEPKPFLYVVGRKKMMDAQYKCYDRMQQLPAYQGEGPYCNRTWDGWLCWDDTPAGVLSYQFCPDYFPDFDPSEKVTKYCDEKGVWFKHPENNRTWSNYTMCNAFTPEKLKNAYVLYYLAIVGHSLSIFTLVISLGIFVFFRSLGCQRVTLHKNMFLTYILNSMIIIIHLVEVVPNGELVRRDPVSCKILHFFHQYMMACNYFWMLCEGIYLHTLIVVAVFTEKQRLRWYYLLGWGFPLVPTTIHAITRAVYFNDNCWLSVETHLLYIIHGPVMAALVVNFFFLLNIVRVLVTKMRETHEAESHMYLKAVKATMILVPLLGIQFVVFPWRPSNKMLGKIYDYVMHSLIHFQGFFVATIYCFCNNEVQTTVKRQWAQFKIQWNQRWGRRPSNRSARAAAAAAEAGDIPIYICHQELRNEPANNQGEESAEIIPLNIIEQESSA

T3: rat amylin receptor (rat calcitonin receptor + rat RAMP 3) (rat, UniProt P32214 25-516; Q9JJ73 23-147)
T3 construct: whole, on cells; Membranes of transiently transfected BHK tk'ts 13 cells; also called rAmylin-R; rat amylin 3(a) receptor
T3 sequence (looked up) 1: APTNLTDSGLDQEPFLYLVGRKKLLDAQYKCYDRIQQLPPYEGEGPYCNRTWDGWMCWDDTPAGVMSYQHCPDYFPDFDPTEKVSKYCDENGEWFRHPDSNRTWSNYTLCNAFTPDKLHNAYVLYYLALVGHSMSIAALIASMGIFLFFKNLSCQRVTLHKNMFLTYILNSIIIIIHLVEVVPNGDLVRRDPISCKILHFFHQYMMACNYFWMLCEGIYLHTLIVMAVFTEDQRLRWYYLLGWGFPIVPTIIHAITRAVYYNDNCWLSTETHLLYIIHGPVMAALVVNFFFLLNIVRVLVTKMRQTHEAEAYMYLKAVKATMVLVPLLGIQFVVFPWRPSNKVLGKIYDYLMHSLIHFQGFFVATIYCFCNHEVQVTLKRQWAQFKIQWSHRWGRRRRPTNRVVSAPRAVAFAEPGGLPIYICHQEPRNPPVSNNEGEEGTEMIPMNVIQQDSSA
T3 sequence (looked up) 2: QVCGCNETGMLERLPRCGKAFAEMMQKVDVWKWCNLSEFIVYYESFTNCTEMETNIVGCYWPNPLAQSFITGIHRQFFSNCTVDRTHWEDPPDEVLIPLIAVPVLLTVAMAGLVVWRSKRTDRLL


Legend:
rat calcitonin receptor [1] = target: T1, rat calcitonin receptor; experiment: ratio of IC50 on rat calcitonin receptor to IC50 on rat amylin receptor (reference m40)
[2] = target: T2, human calcitonin receptor; experiment: ratio of IC50 on human calcitonin receptor to IC50 on human amylin receptor (reference m42), SPA competition
Experimental: The resulting pellet was resuspended, homogenized and centrifuged (20.000 rpm, 15 min) in a buffer containing 20 mM Na-HEPES and 0.1 mM EDTA (pH 7.4, buffer 2). The resulting pellet was resuspended in buffer 2 and protein concentration was measured (BCA protein Assay, Pierce). The homogenate was kept cold during the whole procedure. The membranes were kept at −80° C. until use. The assay was performed in a 384 well Optiplate (PerkinElmer) in a total volume of 40 ul. Membranes were mixed with SPA beads. Final concentration of membranes 35 ng/μL final and SPA beads was 0.05 mg/well. Test-compounds were dissolved in DMSO and further diluted in assay buffer (50 mM Hepes, pH 7.4, 1 mM CaCl2, 5 mM MgCl₂, 0.1% OA and 0.02% Tween20). […] The final mixture was incubated with shaking at 400 rpm for 120 min at 25° C. prior to centrifugation (1500 rpm, 10 min). Samples were analyzed on TopCounter™ (Packard). The IC₅₀ was calculated using (one site binding competition analysis) GraphPad Prism5 as a measure of receptor affinity.
Membranes were prepared in the following way; the cells were rinsed with PBS and incubated with Versene for approximately 5 min before harvesting. The cells were flushed with PBS and the cell-suspension was centrifuged for 5 min at 1000 rpm. Cells were homogenized (Ultrathurrax) in a buffer containing 20 mM Na-HEPES and 10 mM EDTA (pH 7.4) and centrifuged at 20.000 rpm for 15 min. The resulting pellet was resuspended, homogenized and centrifuged (20.000 rpm, 15 min) in a buffer containing 20 mM Na-HEPES and 0.1 mM EDTA (pH 7.4, buffer 2). The resulting pellet was resuspended in buffer 2 and protein concentration was measured (BCA protein Assay, Pierce). The homogenate was kept cold during the whole procedure. The membranes were kept at −80° C. until use. Assay was performed in a 384 well Optiplate (PerkinElmer) in a total volume of 40 ul. Membranes were mixed with SPA beads.

rat calcitonin receptor [3] = target: T1, rat calcitonin receptor; experiment: SPA competition with 125I-calcitonin on membranes of BHK tk'ts 13 cells with rat calcitonin receptor (Assay VIII)
[4] = target: T3, rat amylin receptor (rat calcitonin …); experiment: SPA competition with 125I-rat amylin on membranes of BHK tk'ts 13 cells with rat calcitonin receptor + rat RAMP3 (Assay VI)

Binder | Ratio rCT/rAmylin binding (rat calcitonin receptor [1]) | Ratio hCT/hAmylin binding [2] | IC50 (rat calcitonin receptor [3]) | IC50 [4]
K([AEEA-C20 diacid])CNTATCATQRLAHFLRHSSPNFGAIPSSTNVGSNTY-NH2 (disulfide 2-7; N-terminus assumed; SMILES CC[C@H](C)[C@H](NC(=O)[C@H](C)NC(=O)CNC(=O)[C@H](Cc1ccccc1)NC(=O)[C@H](CC(N)=O)NC(=O)[C@@H]1CCCN1C(=O)[C@H](CO)NC(=O)[C@H](CO)NC(=O)[C@H](Cc1c[nH]cn1)NC(=O)[C@H](CCCNC(=N)N)NC(=O)[C@H](CC(C)C)NC(=O)[C@H](Cc1ccccc1)NC(=O)[C@H](Cc1c[nH]cn1)NC(=O)[C@H](C)NC(=O)[C@H](CC(C)C)NC(=O)[C@H](CCCNC(=N)N)NC(=O)[C@H](CCC(N)=O)NC(=O)[C@@H](NC(=O)[C@H](C)NC(=O)[C@@H]1CSSC[C@H](NC(=O)[C@@H](N)CCCCNC(=O)COCCOCCNC(=O)CCCCCCCCCCCCCCCCCCC(=O)O)C(=O)N[C@@H](CC(N)=O)C(=O)N[C@@H]([C@@H](C)O)C(=O)N[C@@H](C)C(=O)N[C@@H]([C@@H](C)O)C(=O)N1)[C@@H](C)O)C(=O)N1CCC[C@H]1C(=O)N[C@@H](CO)C(=O)N[C@@H](CO)C(=O)N[C@H](C(=O)N[C@@H](CC(N)=O)C(=O)N[C@H](C(=O)NCC(=O)N[C@@H](CO)C(=O)N[C@@H](CC(N)=O)C(=O)N[C@H](C(=O)N[C@@H](Cc1ccc(O)cc1)C(N)=O)[C@@H](C)O)C(C)C)[C@@H](C)O, Synthetic acylated analogue of human amylin; also called compound 90) [N^ε1-[2-[2-[2-(19-carboxynonadecanoylamino)ethoxy]ethoxy]acetyl]-[His14,Arg17,Pro21,Pro27]-h-amylin] | 74.1 | 42.2 | 18.2 nM | 0.246 nM
K([AEEA-AEEA-γGlu-C20 diacid])CNTATCATQRLANFLRHSSPNFGAIPSSTNVGRNTY-NH2 (disulfide 2-7; N-terminus assumed; SMILES CC[C@H](C)[C@H](NC(=O)[C@H](C)NC(=O)CNC(=O)[C@H](Cc1ccccc1)NC(=O)[C@H](CC(N)=O)NC(=O)[C@@H]1CCCN1C(=O)[C@H](CO)NC(=O)[C@H](CO)NC(=O)[C@H](Cc1c[nH]cn1)NC(=O)[C@H](CCCNC(=N)N)NC(=O)[C@H](CC(C)C)NC(=O)[C@H](Cc1ccccc1)NC(=O)[C@H](CC(N)=O)NC(=O)[C@H](C)NC(=O)[C@H](CC(C)C)NC(=O)[C@H](CCCNC(=N)N)NC(=O)[C@H](CCC(N)=O)NC(=O)[C@@H](NC(=O)[C@H](C)NC(=O)[C@@H]1CSSC[C@H](NC(=O)[C@@H](N)CCCCNC(=O)COCCOCCNC(=O)COCCOCCNC(=O)CC[C@H](NC(=O)CCCCCCCCCCCCCCCCCCC(=O)O)C(=O)O)C(=O)N[C@@H](CC(N)=O)C(=O)N[C@@H]([C@@H](C)O)C(=O)N[C@@H](C)C(=O)N[C@@H]([C@@H](C)O)C(=O)N1)[C@@H](C)O)C(=O)N1CCC[C@H]1C(=O)N[C@@H](CO)C(=O)N[C@@H](CO)C(=O)N[C@H](C(=O)N[C@@H](CC(N)=O)C(=O)N[C@H](C(=O)NCC(=O)N[C@@H](CCCNC(=N)N)C(=O)N[C@@H](CC(N)=O)C(=O)N[C@H](C(=O)N[C@@H](Cc1ccc(O)cc1)C(N)=O)[C@@H](C)O)C(C)C)[C@@H](C)O, Synthetic acylated analogue of human amylin; also called compound 95) | 71.3 | 63.4 | 388 nM | 5.45 nM
K([AEEA-AEEA-γGlu-C20 diacid])CNTATCATQRLANFLRHSSPNFGAIPSSTPVGSNTY-NH2 (disulfide 2-7; N-terminus assumed; SMILES CC[C@H](C)[C@H](NC(=O)[C@H](C)NC(=O)CNC(=O)[C@H](Cc1ccccc1)NC(=O)[C@H](CC(N)=O)NC(=O)[C@@H]1CCCN1C(=O)[C@H](CO)NC(=O)[C@H](CO)NC(=O)[C@H](Cc1c[nH]cn1)NC(=O)[C@H](CCCNC(=N)N)NC(=O)[C@H](CC(C)C)NC(=O)[C@H](Cc1ccccc1)NC(=O)[C@H](CC(N)=O)NC(=O)[C@H](C)NC(=O)[C@H](CC(C)C)NC(=O)[C@H](CCCNC(=N)N)NC(=O)[C@H](CCC(N)=O)NC(=O)[C@@H](NC(=O)[C@H](C)NC(=O)[C@@H]1CSSC[C@H](NC(=O)[C@@H](N)CCCCNC(=O)COCCOCCNC(=O)COCCOCCNC(=O)CC[C@H](NC(=O)CCCCCCCCCCCCCCCCCCC(=O)O)C(=O)O)C(=O)N[C@@H](CC(N)=O)C(=O)N[C@@H]([C@@H](C)O)C(=O)N[C@@H](C)C(=O)N[C@@H]([C@@H](C)O)C(=O)N1)[C@@H](C)O)C(=O)N1CCC[C@H]1C(=O)N[C@@H](CO)C(=O)N[C@@H](CO)C(=O)N[C@H](C(=O)N1CCC[C@H]1C(=O)N[C@H](C(=O)NCC(=O)N[C@@H](CO)C(=O)N[C@@H](CC(N)=O)C(=O)N[C@H](C(=O)N[C@@H](Cc1ccc(O)cc1)C(N)=O)[C@@H](C)O)C(C)C)[C@@H](C)O, Synthetic acylated analogue of human amylin; also called compound 96) | 118 | 79.6 | 62.2 nM | 0.529 nM
K([AEEA-AEEA-γGlu-C20 diacid])CNTATCATQRLANFLRHSSPNFGAIPSSTNVGHNTY-NH2 (disulfide 2-7; N-terminus assumed; SMILES CC[C@H](C)[C@H](NC(=O)[C@H](C)NC(=O)CNC(=O)[C@H](Cc1ccccc1)NC(=O)[C@H](CC(N)=O)NC(=O)[C@@H]1CCCN1C(=O)[C@H](CO)NC(=O)[C@H](CO)NC(=O)[C@H](Cc1c[nH]cn1)NC(=O)[C@H](CCCNC(=N)N)NC(=O)[C@H](CC(C)C)NC(=O)[C@H](Cc1ccccc1)NC(=O)[C@H](CC(N)=O)NC(=O)[C@H](C)NC(=O)[C@H](CC(C)C)NC(=O)[C@H](CCCNC(=N)N)NC(=O)[C@H](CCC(N)=O)NC(=O)[C@@H](NC(=O)[C@H](C)NC(=O)[C@@H]1CSSC[C@H](NC(=O)[C@@H](N)CCCCNC(=O)COCCOCCNC(=O)COCCOCCNC(=O)CC[C@H](NC(=O)CCCCCCCCCCCCCCCCCCC(=O)O)C(=O)O)C(=O)N[C@@H](CC(N)=O)C(=O)N[C@@H]([C@@H](C)O)C(=O)N[C@@H](C)C(=O)N[C@@H]([C@@H](C)O)C(=O)N1)[C@@H](C)O)C(=O)N1CCC[C@H]1C(=O)N[C@@H](CO)C(=O)N[C@@H](CO)C(=O)N[C@H](C(=O)N[C@@H](CC(N)=O)C(=O)N[C@H](C(=O)NCC(=O)N[C@@H](Cc1c[nH]cn1)C(=O)N[C@@H](CC(N)=O)C(=O)N[C@H](C(=O)N[C@@H](Cc1ccc(O)cc1)C(N)=O)[C@@H](C)O)C(C)C)[C@@H](C)O, Synthetic acylated analogue of human amylin; also called compound 97) | 71.1 | 104 | 159 nM | 2.24 nM
